Tests used:
[1] = molecular target: human CLDN6 fused to GFP, expressed on engineered HEK293T cells (human) (UniProt P56747); assay: FACS, 293T clone with human CLDN6, 1.5 ug Ab
[2] = molecular target: human CLDN6 fused to GFP, expressed on engineered HEK293T cells (human) (UniProt P56747); assay: FACS, 293T clone with human CLDN6, 0.3 ug Ab

| FACS signal [1] | FACS signal [2] | Binder |
| --- | --- | --- |
| 364000 | 312000 | AB1-Chim (antibody, V domains shown) VH: QVQLQQSAAELARPGASVKMSCKASGYTFTTYTMHWVKQRPGQGLEWIGFINPSSGYTDYNQKFKDRTTLTADKSSSTVYMQLSSLTSEDSAVYYCANGDYYVAYWGQGTLVTVSA VL: QIVLTQSPAIMSASLGERVTMTCTASSSVSSTYFHWYQQKPGSSPKLWIYSTSNLASGVPRRFSGSASGTSYSLTISSMEAEDAATYYCHQYHRSPLTFGAGTKLELK |
| 396000 | 309000 | AB3-2 (antibody, V domains shown) VH: EVQLLESGGGLVQPGGSMRLSCAASGFTFSNYWMNWVRQAPGKGLEWVAQIRLKSDNYATHYADSVKGRFTISRDDSKNTVYLQMNSLRAEDTGVYYCNDGPPSGCWGQGTLLTVSS VL: DIQMTQSPSSLSASVGDRVTITCRISENIYSYLAWYQQKPGKAPKLLIYNAKILVEGVPSRFSGSGSGTDFTLTISSLQPEDFATYYCQHHYTVPWTFGQGTKLEIK |
| 340000 | 251000 | AB3-3 (antibody, V domains shown) VH: EVQLLESGGGLVQPGGSMRLSCAASGFTFSNYWMNWVRQAPGKGLEWVAQIRLKSDNYATHYADSVKGRFTISRDDSKNTVYLQMNSLRAEDTGVYYCNDGPPSGCWGQGTLLTVSS VL: DIQMTQSPSSLSASVGDRVTITCRISENIYSYLAWYQQKPGKAPKLLVYNAKILVEGVPSRFSGSGSGTDFTLTISSLQPEDFGTYYCQHHYTVPWTFGQGTKLEIK |
| 48600 | 13300 | AB3-5 (antibody, V domains shown) VH: EVQLLESGGGLVQPGGSMRLSCAASGFTFSNYWMNWVRQAPGKGLEWVAQIRLKSDNYATHYADSVKGRFTISRDDSKNTVYLQMNSLRAEDTGVYYCNDGPPSGYWGQGTLLTVSS VL: DIQMTQSPSSLSASVGDRVTITCRISENIYSYLAWYQQKPGKAPKLLVYNAKILVEGVPSRFSGSGSGTDFTLTISSLQPEDFGTYYCQHHYTVPWTFGQGTKLEIK |
| 55800 | 11600 | AB3-4 (antibody, V domains shown) VH: EVQLLESGGGLVQPGGSMRLSCAASGFTFSNYWMNWVRQAPGKGLEWVAQIRLKSDNYATHYADSVKGRFTISRDDSKNTVYLQMNSLRAEDTGVYYCNDGPPSGYWGQGTLLTVSS VL: DIQMTQSPSSLSASVGDRVTITCRISENIYSYLAWYQQKPGKAPKLLIYNAKILVEGVPSRFSGSGSGTDFTLTISSLQPEDFATYYCQHHYTVPWTFGQGTKLEIK |
| 142000 | 142000 | AB1-3 (antibody, V domains shown) VH: QVQLVQSGAEVKKPGASVKVSCKASGYTFTTYTMHWVRQAPGQGLEWMGFINPSSGYTDYAQKFQGRVTMTADTSTSTVYMELSSLRSEDTAVYYCANGDYYVAYWGQGTLVTVSS VL: DIQMTQSPSSLSASVGDRVTITCTASSSVSSTYFHWYQQKPGKAPKLLIYSTSNLASGVPSRFSGSGSGTDYTLTISSLQPEDFATYYCHQYHRSPLTFGQGTKLEIK |
| 197000 | 102000 | AB1-4 (antibody, V domains shown) VH: QVQLVQSGAEVKKPGASVKVSCKASGYTFTTYTMHWVRQAPGQGLEWMGFINPSSGYTDYAQKFQGRVTMTADTSTSTVYMELSSLRSEDTAVYYCANGDYYVAYWGQGTLVTVSS VL: DIQLTQSPSSLSASVGDRVTMTCTASSSVSSTYFHWYQQKPGKAPKLLIYSTSNLASGVPSRFSGSGSGTDYTLTISSMQPEDAATYYCHQYHRSPLTFGQGTKLEIK |
| 227000 | 120000 | AB1-6 (antibody, V domains shown) VH: QVQLVQSGAEVKKPGASVKMSCKASGYTFTTYTMHWVRQAPGQGLEWIGFINPSSGYTDYAQKFQGRVTLTADTSTSTVYMELSSLRSEDTAVYYCANGDYYVAYWGQGTLVTVSS VL: DIQMTQSPSSLSASVGDRVTITCTASSSVSSTYFHWYQQKPGKAPKLLIYSTSNLASGVPSRFSGSGSGTDYTLTISSLQPEDFATYYCHQYHRSPLTFGQGTKLEIK |
| 210000 | 98800 | AB1-8 (antibody, V domains shown) VH: QVQLVQSGAEVKKPGASVKMSCKASGYTFTTYTMHWVRQAPGQGLEWIGFINPSSGYTDYAQKFQGRVTLTADTSTSTVYMELSSLRSEDTAVYYCANGDYYVAYWGQGTLVTVSS VL: DIQLTQSPSSLSASVGDRVTMTCTASSSVSSTYFHWYQQKPGKAPKLWIYSTSNLASGVPSRFSGSGSGTDYTLTISSMQPEDAATYYCHQYHRSPLTFGQGTKLEIK |
| 113000 | 64900 | AB1-11 (antibody, V domains shown) VH: QVQLVQSGAEVKKPGASVKMSCKASGYTFTTYTMHWVRQAPGQGLEWIGFINPSSGYTDYAQKFQGRVTLTADKSTSTVYMELSSLRSEDTAVYYCANGDYYVAYWGQGTLVTVSS VL: DIQLTQSPSSLSASVGDRVTMTCTASSSVSSTYFHWYQQKPGKAPKLWIYSTSNLASGVPSRFSGSGSGTDYTLTISSMQPEDAATYYCHQYHRSPLTFGQGTKLEIK |
| 213000 | 138000 | AB1-5 (antibody, V domains shown) VH: QVQLVQSGAEVKKPGASVKVSCKASGYTFTTYTMHWVRQAPGQGLEWMGFINPSSGYTDYAQKFQGRVTMTADTSTSTVYMELSSLRSEDTAVYYCANGDYYVAYWGQGTLVTVSS VL: DIQLTQSPSSLSASVGDRVTMTCTASSSVSSTYFHWYQQKPGKAPKLWIYSTSNLASGVPSRFSGSGSGTDYTLTISSMQPEDAATYYCHQYHRSPLTFGQGTKLEIK |
| 207000 | 79200 | AB1-7 (antibody, V domains shown) VH: QVQLVQSGAEVKKPGASVKMSCKASGYTFTTYTMHWVRQAPGQGLEWIGFINPSSGYTDYAQKFQGRVTLTADTSTSTVYMELSSLRSEDTAVYYCANGDYYVAYWGQGTLVTVSS VL: DIQLTQSPSSLSASVGDRVTMTCTASSSVSSTYFHWYQQKPGKAPKLLIYSTSNLASGVPSRFSGSGSGTDYTLTISSMQPEDAATYYCHQYHRSPLTFGQGTKLEIK |
| 47800 | 14300 | AB4-3 (antibody, V domains shown) VH: QVQLVQSGAEVKKPGASVKVSCKASGYTFTSYTMHWVRQAPGQGLEWMGYINPSSTYTHYAQKFQGRVTMTADTSTSTVYMELSSLRSEDTAVYYCSRGELGGFAYWGQGTLVTVSS VL: DVVMTQSPLSLPVTLGQPASISCRSSQSLVHSDGNTYLNWYQQRPGQSPRLLIYKVSNRFSGVPDRFSGSGSGTDFTLKISRVEAEDVGVYYCSQSTHVPYTFGQGTKLEIK |
| 29200 | 10800 | AB4-6 (antibody, V domains shown) VH: QVQLVQSGAEVKKPGASVKMSCKASGYTFTSYTMHWIRQAPGQGLEWIGYINPSSTYTHYAQKFQGRATLTADKSTSTAYMELSSLRSEDTAVYYCSRGELGGFAYWGQGTLVTVSS VL: DVVMTQSPLSLPVTLGQPASISCRSSQSLVHSDGNTYLNWYQQRPGQSPRLLIYKVSNRFSGVPDRFSGSGSGTDFTLKISRVEAEDVGVYYCSQSTHVPYTFGQGTKLEIK |
| 43400 | 16800 | AB4-5 (antibody, V domains shown) VH: QVQLVQSGAEVKKPGASVKMSCKASGYTFTSYTMHWIRQAPGQGQEWIGYINPSSTYTHYAQKFQGRATLTADTSTSTAYMELSSLRSEDTAVYYCSRGELGGFAYWGQGTLVTVSS VL: DVVMTQSPLSLPVTLGQPASISCRSSQSLVHSDGNTYLNWYQQRPGQSPRLLIYKVSNRFSGVPDRFSGSGSGTDFTLKISRVEAEDVGVYYCSQSTHVPYTFGQGTKLEIK |
| 33300 | 19200 | AB4-7 (antibody, V domains shown) VH: QVQLVQSGAEVKKPGASVKMSCKASGYTFTSYTMHWIRQAPGQGQEWIGYINPSSTYTHYAQKFQGRATLTADKSTSTAYMELSSLRSEDTAVYYCSRGELGGFAYWGQGTLVTVSS VL: DVVMTQSPLSLPVTLGQPASISCRSSQSLVHSDGNTYLNWYQQRPGQSPRLLIYKVSNRFSGVPDRFSGSGSGTDFTLKISRVEAEDVGVYYCSQSTHVPYTFGQGTKLEIK |
| 49000 | 14100 | AB4-4 (antibody, V domains shown) VH: QVQLVQSGAEVKKPGASVKMSCKASGYTFTSYTMHWIRQAPGQGLEWIGYINPSSTYTHYAQKFQGRATLTADTSTSTAYMELSSLRSEDTAVYYCSRGELGGFAYWGQGTLVTVSS VL: DVVMTQSPLSLPVTLGQPASISCRSSQSLVHSDGNTYLNWYQQRPGQSPRLLIYKVSNRFSGVPDRFSGSGSGTDFTLKISRVEAEDVGVYYCSQSTHVPYTFGQGTKLEIK |
| 77600 | 49300 | AB4-8 (antibody, V domains shown) VH: QVQLVQSGAEVKKPGASVKVSCKASGYTFTSYTMHWVRQAPGQGLEWMGYINPSSTYTHYIKKFKDRVTMTADTSTSTVYMELSSLRSEDTAVYYCSRGELGGFAYWGQGTLVTVSS VL: DVVMTQSPLSLPVTLGQPASISCRSSQSLVHSDGNTYLNWYQQRPGQSPRLLIYKVSNRFSGVPDRFSGSGSGTDFTLKISRVEAEDVGVYYCSQSTHVPYTFGQGTKLEIK |
| 56900 | 37200 | AB4-9 (antibody, V domains shown) VH: QVQLVQSGAEVKKPGASVKMSCKASGYTFTSYTMHWIRQAPGQGLEWIGYINPSSTYTHYIKKFKDRATLTADTSTSTAYMELSSLRSEDTAVYYCSRGELGGFAYWGQGTLVTVSS VL: DVVMTQSPLSLPVTLGQPASISCRSSQSLVHSDGNTYLNWYQQRPGQSPRLLIYKVSNRFSGVPDRFSGSGSGTDFTLKISRVEAEDVGVYYCSQSTHVPYTFGQGTKLEIK |
| 459000 | 267000 | AB3-chim (antibody, V domains shown) VH: EVKLEESGGGLVQPGGSMKLSCVASGFTFSNYWMNWVRQSPEKGLEWVAQIRLKSDNYATHYAESVKGRFTISRDDSKRSVYLQMNNLRAEDTGTYYCNDGPPSGCWGQGTTLIVSS VL: DIQMTQSPASLSASVGETVTITCRISENIYSYLAWYQQKQGKSPQLLVYNAKILVEGVPSRFSGSGSGTQFSLKINSLQPEDFGNYYCQHHYTVPWTFGGGTKLEIK |

— patent US20220177583A1
